This note sets out measurements from article doi:10.1101/713511.

For orientation: Kd means the equilibrium constant for the complex coming apart.

In series [1] the target is T1, Atto550-SERF1a (human, UniProt O75920-2 1-62).
T1 sequence: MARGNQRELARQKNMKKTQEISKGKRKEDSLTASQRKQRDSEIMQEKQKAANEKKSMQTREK
Put plainly: fluorescence anisotropy. For orientation: Fluorescence polarisation rises when a labelled molecule tumbles more slowly, as on binding a larger partner.

The target of series [2] is T2, SERF1a (human, UniProt O75920-2 1-62).
T2 sequence: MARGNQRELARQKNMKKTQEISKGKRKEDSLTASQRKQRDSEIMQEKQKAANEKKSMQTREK
Nature of the series: fluorescence anisotropy.

In another series the target is T3, YDL085C-A (S. cerevisiae, UniProt Q3E7B7 1-68).
T3 sequence: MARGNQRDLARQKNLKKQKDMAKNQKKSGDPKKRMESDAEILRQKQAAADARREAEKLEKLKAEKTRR
Put plainly: fluorescence anisotropy.

The target of series [3] is T2, SERF1a. Nature of the series: ITC. For orientation: In ITC the heat of successive injections is recorded.
Series [4] concerns the target T1, Atto550-SERF1a. Put plainly: fluorescence anisotropy. This is another data set of the same source.

B1: dsDNA 21mer (dsDNA)
DNA 1: ATGTGGAAAATCTCTAGCAGT
DNA 2: ACTGCTAGAGATTTTCCACAT
As for B1, the binding result with Atto550-SERF1a [1] is on record as “no binding”.

B2: Cy3-R21(-) (ssRNA)
RNA: ACUGCUAGAGAUUUUCCACAU
For B2, the Kd amounted to 4.81 ± 0.48 µM in the series with SERF1a [2] and 2.35 ± 0.56 µM in the series with YDL085C-A.

B3: R21(-) / 21R(-) (ssRNA)
RNA: ACUGCUAGAGAUUUUCCACAU
For the molecule B3, the Kd came out at 5.99 ± 2.32 µM in the series with SERF1a [3] and 4.39 ± 1.59 µM in the series with Atto550-SERF1a [4].
